Assay results reported in PMC2756588.

Biological target: Bem1-1, P29366
Assay: SPOT array
Settings: median of control spots 4282

Bem1-1, P29366, sequence (P29366 55-141): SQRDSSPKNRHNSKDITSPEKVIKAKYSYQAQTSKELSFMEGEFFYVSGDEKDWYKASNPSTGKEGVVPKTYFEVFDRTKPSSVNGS

| Binder | SPOT intensity |
| --- | --- |
| VQKRKLPLPGSIASA | 0 |
| FPGKKSPRLPHRNKK | 0 |
| AAAPKHAPPPVPNET | 0 |

Biological target: T1, Boi1, P38041
T1 sequence (P38041 1-86, looked up): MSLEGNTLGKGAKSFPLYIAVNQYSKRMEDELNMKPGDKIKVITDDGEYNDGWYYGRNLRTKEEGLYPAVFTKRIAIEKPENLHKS
Assay: SPOT array
Settings: median of control spots 1162

| Binder | SPOT intensity |
| --- | --- |
| VQKRKLPLPGSIASA | 0 |
| FPGKKSPRLPHRNKK | 7 |
| AAAPKHAPPPVPNET | 0 |

Biological target: T2, Bzz1-2, P38822
T2 sequence (P38822 568-633, looked up): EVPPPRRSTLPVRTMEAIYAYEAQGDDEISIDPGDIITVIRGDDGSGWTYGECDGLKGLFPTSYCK
Assay: SPOT array
Settings: median of control spots 4538

| Binder | SPOT intensity |
| --- | --- |
| VQKRKLPLPGSIASA | 0 |
| FPGKKSPRLPHRNKK | 5 |
| AAAPKHAPPPVPNET | 0 |

Biological target: Bem1-2, P29366
Assay: SPOT array
Settings: median of control spots 4347

Bem1-2, P29366, sequence (P29366 139-227): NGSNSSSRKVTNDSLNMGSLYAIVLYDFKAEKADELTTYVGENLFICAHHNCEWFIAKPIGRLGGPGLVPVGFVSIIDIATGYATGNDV

| Binder | SPOT intensity |
| --- | --- |
| VQKRKLPLPGSIASA | 1 |
| FPGKKSPRLPHRNKK | 0 |
| AAAPKHAPPPVPNET | 84 |

Biological target: Myo3, P36006
Assay: SPOT array
Settings: median of control spots 468

| Binder | SPOT intensity |
| --- | --- |
| VQKRKLPLPGSIASA | 0 |
| FPGKKSPRLPHRNKK | 0 |
| AAAPKHAPPPVPNET | 557 |

Biological target: T3, Hof1, Q05080
T3 sequence (Q05080 590-669, looked up): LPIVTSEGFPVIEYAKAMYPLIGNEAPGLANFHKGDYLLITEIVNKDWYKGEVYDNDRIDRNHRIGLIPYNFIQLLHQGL
Assay: SPOT array
Settings: median of control spots 4086

| Binder | SPOT intensity |
| --- | --- |
| VQKRKLPLPGSIASA | 0 |
| FPGKKSPRLPHRNKK | 1 |
| AAAPKHAPPPVPNET | 0 |

Biological target: T4, Boi2, P39969
T4 sequence (P39969 32-116, looked up): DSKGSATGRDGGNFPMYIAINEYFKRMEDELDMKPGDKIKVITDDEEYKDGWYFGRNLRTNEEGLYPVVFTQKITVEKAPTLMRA
Assay: SPOT array
Settings: median of control spots 1161

| Binder | SPOT intensity |
| --- | --- |
| VQKRKLPLPGSIASA | 0 |
| FPGKKSPRLPHRNKK | 0 |
| AAAPKHAPPPVPNET | 0 |

Biological target: T5, Sla1-3, P32790
T5 sequence (P32790 344-424, looked up): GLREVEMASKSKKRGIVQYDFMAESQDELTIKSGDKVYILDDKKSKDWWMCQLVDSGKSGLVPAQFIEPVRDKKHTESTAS
Assay: SPOT array
Settings: median of control spots 5475

| Binder | SPOT intensity |
| --- | --- |
| VQKRKLPLPGSIASA | 4 |
| FPGKKSPRLPHRNKK | 12 |
| AAAPKHAPPPVPNET | 0 |

Biological target: T6, Lsb3, P43603
T6 sequence (P43603 385-451, looked up): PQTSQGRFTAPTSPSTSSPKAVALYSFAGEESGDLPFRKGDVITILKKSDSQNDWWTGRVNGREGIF
Assay: SPOT array
Settings: median of control spots 406

| Binder | SPOT intensity |
| --- | --- |
| VQKRKLPLPGSIASA | 1 |
| FPGKKSPRLPHRNKK | 155 |
| AAAPKHAPPPVPNET | 0 |

Biological target: T7, Bud14, P27637
T7 sequence (P27637 247-328, looked up): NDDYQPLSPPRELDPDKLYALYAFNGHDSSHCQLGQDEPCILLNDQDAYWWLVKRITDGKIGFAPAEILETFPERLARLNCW
Assay: SPOT array
Settings: median of control spots 956

| Binder | SPOT intensity |
| --- | --- |
| VQKRKLPLPGSIASA | 0 |
| FPGKKSPRLPHRNKK | 22 |
| AAAPKHAPPPVPNET | 0 |

Biological target: T8, Nbp2, Q12163
T8 sequence (Q12163 103-180, looked up): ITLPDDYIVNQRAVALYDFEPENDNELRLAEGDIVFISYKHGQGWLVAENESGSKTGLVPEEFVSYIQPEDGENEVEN
Assay: SPOT array
Settings: median of control spots 357

| Binder | SPOT intensity |
| --- | --- |
| VQKRKLPLPGSIASA | 1 |
| FPGKKSPRLPHRNKK | 0 |
| AAAPKHAPPPVPNET | 0 |

Biological target: T9, Abp1, P15891
T9 sequence (P15891 535-592, looked up): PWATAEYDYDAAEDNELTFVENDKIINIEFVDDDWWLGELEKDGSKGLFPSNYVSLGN
Assay: SPOT array
Settings: median of control spots 935

| Binder | SPOT intensity |
| --- | --- |
| VQKRKLPLPGSIASA | 157 |
| FPGKKSPRLPHRNKK | 175 |
| AAAPKHAPPPVPNET | 0 |

Biological target: GST
Assay: SPOT array
Settings: median of control spots 978

| Binder | SPOT intensity |
| --- | --- |
| VQKRKLPLPGSIASA | 0 |
| FPGKKSPRLPHRNKK | 1 |
| AAAPKHAPPPVPNET | 0 |

Biological target: T10, Myo5, Q04439
T10 sequence (Q04439 1072-1160, looked up): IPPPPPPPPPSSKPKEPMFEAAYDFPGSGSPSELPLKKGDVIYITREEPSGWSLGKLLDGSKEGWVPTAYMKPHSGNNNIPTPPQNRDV
Assay: SPOT array
Settings: median of control spots 471

| Binder | SPOT intensity |
| --- | --- |
| VQKRKLPLPGSIASA | 0 |
| FPGKKSPRLPHRNKK | 0 |
| AAAPKHAPPPVPNET | 376 |

Biological target: T11, Cyk3, Q07533
T11 sequence (Q07533 1-83, looked up): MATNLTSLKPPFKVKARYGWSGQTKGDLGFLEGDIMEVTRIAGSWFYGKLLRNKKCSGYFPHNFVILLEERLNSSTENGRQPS
Assay: SPOT array
Settings: median of control spots 1451

| Binder | SPOT intensity |
| --- | --- |
| VQKRKLPLPGSIASA | 0 |
| FPGKKSPRLPHRNKK | 3 |
| AAAPKHAPPPVPNET | 0 |

Biological target: T12, Fus1, P11710
T12 sequence (P11710 432-512, looked up): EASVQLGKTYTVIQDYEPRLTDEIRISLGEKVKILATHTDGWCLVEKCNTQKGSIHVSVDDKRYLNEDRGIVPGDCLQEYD
Assay: SPOT array
Settings: median of control spots 1200

| Binder | SPOT intensity |
| --- | --- |
| VQKRKLPLPGSIASA | 0 |
| FPGKKSPRLPHRNKK | 0 |
| AAAPKHAPPPVPNET | 0 |

Biological target: T13, Pex13, P80667
T13 sequence (P80667 295-386, looked up): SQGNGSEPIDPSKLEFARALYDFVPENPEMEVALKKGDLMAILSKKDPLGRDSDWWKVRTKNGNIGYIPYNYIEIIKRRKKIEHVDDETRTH
Assay: SPOT array
Settings: median of control spots 1341

| Binder | SPOT intensity |
| --- | --- |
| VQKRKLPLPGSIASA | 0 |
| FPGKKSPRLPHRNKK | 16 |
| AAAPKHAPPPVPNET | 0 |

Biological target: Rvs167, P39743
Assay: SPOT array
Settings: median of control spots 2707

Rvs167, P39743, sequence (P39743 419-482): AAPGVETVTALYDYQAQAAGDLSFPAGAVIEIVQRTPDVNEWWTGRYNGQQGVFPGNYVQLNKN

| Binder | SPOT intensity |
| --- | --- |
| VQKRKLPLPGSIASA | 0 |
| FPGKKSPRLPHRNKK | 314 |
| AAAPKHAPPPVPNET | 0 |

Biological target: T14, Cdc25, P04821
T14 sequence (P04821 50-136, looked up): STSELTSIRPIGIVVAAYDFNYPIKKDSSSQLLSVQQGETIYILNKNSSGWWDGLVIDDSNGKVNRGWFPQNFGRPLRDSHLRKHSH
Assay: SPOT array
Settings: median of control spots 969

| Binder | SPOT intensity |
| --- | --- |
| VQKRKLPLPGSIASA | 18 |
| FPGKKSPRLPHRNKK | 35 |
| AAAPKHAPPPVPNET | 0 |

Biological target: T15, Sla1-2, P32790
T15 sequence (P32790 60-140, looked up): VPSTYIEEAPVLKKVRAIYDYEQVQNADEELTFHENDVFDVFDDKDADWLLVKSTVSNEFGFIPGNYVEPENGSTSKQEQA
Assay: SPOT array
Settings: median of control spots 712

| Binder | SPOT intensity |
| --- | --- |
| VQKRKLPLPGSIASA | 0 |
| FPGKKSPRLPHRNKK | 0 |
| AAAPKHAPPPVPNET | 0 |

Biological target: T16, Lsb1, P53281
T16 sequence (P53281 45-122, looked up): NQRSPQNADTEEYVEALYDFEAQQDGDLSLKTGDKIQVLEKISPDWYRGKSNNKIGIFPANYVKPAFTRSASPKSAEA
Assay: SPOT array
Settings: median of control spots 388

| Binder | SPOT intensity |
| --- | --- |
| VQKRKLPLPGSIASA | 0 |
| FPGKKSPRLPHRNKK | 5 |
| AAAPKHAPPPVPNET | 0 |

Biological target: T17, Bzz1-1, P38822
T17 sequence (P38822 478-572, looked up): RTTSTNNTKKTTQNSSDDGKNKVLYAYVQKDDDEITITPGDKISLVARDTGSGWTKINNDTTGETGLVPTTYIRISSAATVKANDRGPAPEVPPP
Assay: SPOT array
Settings: median of control spots 4446

| Binder | SPOT intensity |
| --- | --- |
| VQKRKLPLPGSIASA | 0 |
| FPGKKSPRLPHRNKK | 0 |
| AAAPKHAPPPVPNET | 0 |

Biological target: T18, Bbc1, P47068
T18 sequence (P47068 1-78, looked up): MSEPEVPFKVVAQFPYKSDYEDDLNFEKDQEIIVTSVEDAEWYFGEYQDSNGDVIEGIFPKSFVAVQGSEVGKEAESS
Assay: SPOT array
Settings: median of control spots 796

| Binder | SPOT intensity |
| --- | --- |
| VQKRKLPLPGSIASA | 23 |
| FPGKKSPRLPHRNKK | 13 |
| AAAPKHAPPPVPNET | 0 |

Biological target: T19, Pin3, Q06449
T19 sequence (Q06449 53-122, looked up): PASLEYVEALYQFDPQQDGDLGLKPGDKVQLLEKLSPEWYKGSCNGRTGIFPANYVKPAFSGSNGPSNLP
Assay: SPOT array
Settings: median of control spots 2171

| Binder | SPOT intensity |
| --- | --- |
| VQKRKLPLPGSIASA | 0 |
| FPGKKSPRLPHRNKK | 0 |
| AAAPKHAPPPVPNET | 0 |

Biological target: T20, Hse1, P38753
T20 sequence (P38753 208-285, looked up): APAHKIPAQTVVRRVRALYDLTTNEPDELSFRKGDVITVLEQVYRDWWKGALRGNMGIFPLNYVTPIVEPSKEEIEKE
Assay: SPOT array
Settings: median of control spots 1727

| Binder | SPOT intensity |
| --- | --- |
| VQKRKLPLPGSIASA | 0 |
| FPGKKSPRLPHRNKK | 8 |
| AAAPKHAPPPVPNET | 13 |

Biological target: Sho1, P40073
Assay: SPOT array
Settings: median of control spots 1148

Sho1, P40073, sequence (P40073 287-367): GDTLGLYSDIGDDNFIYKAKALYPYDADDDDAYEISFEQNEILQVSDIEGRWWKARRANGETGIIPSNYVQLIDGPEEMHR

| Binder | SPOT intensity |
| --- | --- |
| VQKRKLPLPGSIASA | 11 |
| FPGKKSPRLPHRNKK | 84 |
| AAAPKHAPPPVPNET | 0 |

Biological target: T21, Lsb4, P32793
T21 sequence (P32793 402-468, looked up): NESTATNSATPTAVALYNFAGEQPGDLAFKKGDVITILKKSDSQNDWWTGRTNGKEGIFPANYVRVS
Assay: SPOT array
Settings: median of control spots 397

| Binder | SPOT intensity |
| --- | --- |
| VQKRKLPLPGSIASA | 13 |
| FPGKKSPRLPHRNKK | 225 |
| AAAPKHAPPPVPNET | 0 |
